# How the values were obtained:
# [1] = system: GFP gene (modified promoter) in HEK293T cells; experiment: Transcriptional activation of GFP reporter with dCas9-VPR in HEK293T cells; assay type: cell-based, human
# Text: In addition to genome editing, transcriptional regulation is another widely used application of CRISPR-Cas9^4. To further explore the utility of agRNAs, we sought to develop an agRNA that responds to a different small-molecule ligand and activates the expression of a guide RNA-specified target gene, rather than editing a target gene through DNA cleavage. A previously reported guanine-aptazyme^24 that contains a naturally occurring guanine aptamer^25 was incorporated into the guide RNA and the resulting guanine-agRNA was tested for its ability to activate transcription of a GFP gene in HEK293T cells (FIG. 3c). […] In the presence of an active guide RNA, dCas9-VPR initiates transcription of GFP, ultimately resulting in cell fluorescence.
# (§1) To each well in a 48-well plate, 200 ng of dCas9-VPR plasmid, 0.5 ng of guide RNA plasmid and 60 ng of reporter plasmid were transfected using 1.2 μL Lipofectamine 2000. […] Cells were harvested 20 h after transfection.
# FANCF site = experiment: Theophylline-dependent base editing (BE3), FANCF site; assay type: cell-based, human; conditions: ligand concentration 4 mM
# Text: Cells were harvested 3 days after transfection.
# [2] = system: endogenous GFP locus in HEK293-GFP cells
# Text: To compare the activities of the guide RNAs with the blocking region either present or removed, a non-cleaving “dead” variant of HHR-bsgRNA (dHHR-bsgRNA) containing a single A to G point mutation in the catalytic loop of the hammerhead ribozyme was produced. To optimize the restoration of guide RNA activity by self-cleavage of the hammerhead ribozyme, the length of the blocking sequence was varied. Three sets of HHR-bsgRNAs and dHHR-bsgRNAs with blocking sequences of 10 to 17 nucleotides were constructed. The genome editing activities of these sgRNA variants in the presence of Cas9 in human embryonic kidney cells harboring genomic GFP genes (HEK293-GFP) were assayed by targeting the endogenous GFP locus (FIG. 2a).
# HEK293 cells with integrated GFP genes (GenTarget Inc.) were cultured in 48-well plates (40,000 cells seeded per well) in Dulbecco's Modified Eagle's Media plus GlutaMAX (DMEM, Life Technologies) with 10% FBS. Plasmids were transfected ˜20 h after plating when cells reached ˜70% confluence. To edit the GFP genes in HEK293 cells, 100 ng of Cas9 plasmid and 2 ng of guide RNA plasmid were transfected in each well using 1.2 μL Lipofectamine 2000 (Life Technologies) following the manufacturer's protocol. To distinguish transfected cells from non-transfected cells, 2 ng of an iRFP expression plasmid was co-transfected. A stock solution of 100 mM theophylline was made in 60 mM NaOH and was supplied to cells 6 h after plasmid transfection at designed concentrations. The cells were incubated for additional 7 days before analysis and media was changed at day 3, 5 and 6. Fresh theophylline was supplied immediately at the same concentration as in the initial condition each time the media was changed. GFP fluorescence was quantified by flow cytometry and the transfected live population was gated by iRFP signal.
# [3] = system: target dsDNA (full GFP gene); experiment: In vitro DNA cleavage assay (Cas9 + guide RNA); assay type: biochemical; conditions: 10 nM target DNA, 100 nM guide RNA, 100 nM Cas9, 37° C.; for target DNA cleavage followed by gel electrophoresis: 1 h for sgRNA variants, 5 h for crRNA and tracrRNA variants
# Procedure: The blocker-linked guide RNAs were prepared by in vitro transcription and incubated in vitro with Cas9 protein and a target dsDNA. Target DNA cleavage was followed by gel electrophoresis (FIG. 1b).
# SpCas9 protein was purified as previously described^1,35. Guide RNAs were transcribed using a T7 High Yield RNA Synthesis Kit (NEB) following the manufacturer's protocol, and purified with the E.Z.N.A. PF miRNA Isolation Kit (Omega Bio-tek, Inc.). The target dsDNA (full GFP gene) was amplified by polymerase chain reaction and purified using QlAquick PCR Purification Kit (QIAGEN). For the cleavage reaction, 10 nM of the target DNA was incubated with 100 nM of the guide RNA in the presence of 100 nM Cas9 protein in a Cas9 DNA cleavage buffer (150 mM KCl, 10 mM MgCl2, 0.5 mM DTT, 0.1 mM EDTA, 20 mM HEPES pH 7.5). In vitro editing reactions were incubated at 37° C. for 1 h for sgRNA and its variants and the reactions for crRNA and tracrRNA and their variants were incubated at 37° C. for 5 h before being stopped with 6×DNA loading buffer and analyzed by non-denaturing agarose gel electrophoresis.
# [4] = system: RFP reporter in HEK293T cells; experiment: Transcriptional activation of RFP reporter with dCas9-VPR in HEK293T cells; assay type: cell-based, human; conditions: different spacer sequence
# Procedure: To further generalize this strategy, we tested the guanine-agRNA with three bulges for RFP activation in HEK293T cells with a different spacer sequence that is unrelated to the spacer used to target GFP.
# as §1
molecule,measurement,setting,value
"Nc1nc2nc[nH]c2c(=O)[nH]1 [guanine, reference compound]",effect of guanine on GFP fluorescence,"[1]; guanine in the medium from 0 to 200 μM, cells with (d) guanine-agRNA",slightly reduced GFP fluorescence
Cn1c(=O)[nH]c(=O)c2[nH]cnc21 [3-methylxanthine],"response of theophylline-agRNA-mediated base editing to ligand, fold less strongly than to theophylline",FANCF site,2 fold
"canonical sgRNA: canonical Streptococcus pyogenes single guide RNA targeting GFP, positive control (nucleic acid, chemistry not given here, canonical Streptococcus pyogenes single guide RNA targeting GFP, positive control) guide: GGGCACGGGCAGCUUGCCGGGUUUUAGAGCUAGAAAUAGCAAGUUAAAAUAAGGCUAGUCCGUUAUCAACUUGAAAAAGUGGCACCGAGUCGGUGCUUUUUUU",activity relative to that of the activated agRNA,"[2]; loss beyond the off-state, 62% vs 48%",1.3 fold
same,loss beyond the off-state,[2]; wild-type Cas9,62%
same,GFP loss,"[2]; wild-type Cas9, canonical guide, positive control",72%
same,cleavage efficiency,[3]; 1 h,~100%
"blocked crRNA: crRNA with 42-nucleotide linker and 10-nucleotide blocking sequence appended to the 3′ end (nucleic acid, unmodified RNA) guide: GGGCACGGGCAGCUUGCCGGGUUUUAGAGCUAUGCUGUUUUGGAUGGCAACCACGUCGCGUCCUGUAGUAGUAUGAUAGCUCUAA",target DNA cleavage followed by gel electrophoresis,[3],partial cleavage of the target DNA
guanine-agRNA: guanine-aptazyme-embedded guide RNA for GFP activation (nucleic acid) guide: GCAAGCUGCCCGUGCCCGGUACAUCCAGCUGAUGAGUCCCAAAUAGGACGAAAUACUAUAAUCGCGUGGAUAUGGCACGCAAGUUUCUACCGGGCACCGUAAAUGUCCGACUAGUGUCCUGGAUUCCACGGGCACGGGCAGCUUGCCGGGUUUUAGAGCUAGAAAUAGCAAGUUAAAAUAAGGCUAGUCCGUUAUCAACUUGAAAAAGUGGCACCGAGUCGGUGCUUUUUUU,off-state activity (GFP fluorescence),"[1]; absence of guanine, compared to control cells lacking any guide RNA",elevated GFP fluorescence
same,activation of GFP fluorescence,[1]; guanine added to media at 50 μM,5 fold
(d) guanine-agRNA: non-splicing mutant of guanine-agRNA (nucleic acid) GCAAGCUGCCCGUGCCCGGUACAUCCAGCUGAUGAGUCCCAAAUAGGACGAGAUACUAUAAUCGCGUGGAUAUGGCACGCAAGUUUCUACCGGGCACCGUAAAUGUCCGACUAGUGUCCUGGAUUCCACGGGCACGGGCAGCUUGCCGGGUUUUAGAGCUAGAAAUAGCAAGUUAAAAUAAGGCUAGUCCGUUAUCAACUUGAAAAAGUGGCACCGAGUCGGUGCUUUUUUU,GFP activation by guanine,"[1]; guanine 50 μM (dHHR-bsgRNA) or different concentrations ((d) guanine-agRNA), dCas9-VPR",only a low level of GFP expression that could no longer be activated by guanine
"blocked tracrRNA: tracrRNA with 42-nucleotide linker and 10-nucleotide blocking sequence appended to the 5′ end (nucleic acid, unmodified RNA) GGAUUUUAACUUUAGUAGUAGUAGGCAACCACGUCGCGUCCUAGUAGGCAUAGCAAGUUAAAAUAAGGCUAGUCCGUUAUCAACUUGAAAAAGUGGCACCGAGUCGGUGCUUUUUUU",target DNA cleavage followed by gel electrophoresis,[3],partial cleavage of the target DNA
5′ spacer-blocked sgRNA: sgRNA with 42-nucleotide linker and 6-nucleotide blocking sequence complementary to the spacer at the 5′ end (nucleic acid) guide: GGUGCCCGUAGUAGUAGUAGCAACCACGUCGCGUCCGUAGUAGUAGUAGGGCACGGGCAGCUUGCCGGGUUUUAGAGCUAGAAAUAGCAAGUUAAAAUAAGGCUAGUCCGUUAUCAACUUGAAAAAGUGGCACCGAGUCGGUGCUUUUUUU,target DNA cleavage followed by gel electrophoresis,[3],no cleavage product could be detected
guanine-agRNA with three bulges: guanine-agRNA with bulged blocker and a different spacer for RFP activation (nucleic acid) guide: ACUGCGGGAUGGAGGAGACGGUACAUCCAGCUGAUGAGUCCCAAAUAGGACGAAAUACUAUAAUCGCGUGGAUAUGGCACGCAAGUUUCUACCGGGCACCGUAAAUGUCCGACUAGUGUCCUGGAUUCCACGUCCCCUCCACCCCACAGUGGUUUUAGAGCUAGAAAUAGCAAGUUAAAAUAAGGCUAGUCCGUUAUCAACUUGAAAAAGUGGCACCGAGUCGGUGCUUUUUUU,guanine-dependent RFP activation ratio,[4],~3 fold
"post-cleavage sgRNA: processed HHR-bsgRNA without the blocking sequence, 11 extra nucleotides at the 5′ end (nucleic acid, chemistry not given here) guide: GCUGGAUUCCACGGGCACGGGCAGCUUGCCGGGUUUUAGAGCUAGAAAUAGCAAGUUAAAAUAAGGCUAGUCCGUUAUCAACUUGAAAAAGUGGCACCGAGUCGGUGCUUUUUUU",activity compared to the unmodified guide RNA,"[2]; HEK293-GFP cells, Cas9, sgRNA with 11 extra nucleotides at the 5′ end",maintained most of its activity

# — patent publication US11560566B2, “Aptazyme-embedded guide RNAs for use with CRISPR-Cas9 in genome editing and transcriptional activation” (President and Fellows of Harvard College, priority 2017, dated 2023)
